From paper PMC11178655, “Dosimetry and pharmacokinetics of [^177Lu]Lu-satoreotide tetraxetan in patients with progressive neuroendocrine tumours” (European Journal of Nuclear Medicine and Molecular Imaging, 2024)
Where two headings read alike, the source gives them in different places. Where a SMILES comes first, the peptide text is derived from it. Bridges are numbered along the chain shown (N, C = ends). [ ]: non-standard residue; d: D form. The star is where a group is joined. DOTA = O=C(O)CN1CCN(CC(=O)O)CCN(CC(=O)*)CCN(CC(=O)O)CC1; dPhe(4-NHCONH2) = NC(=O)Nc1ccc(C[C@@H](N)C(=O)O)cc1; Dihydroorotyl(S) = O=C1C[C@@H](C(=O)*)NC(=O)N1; Phe(4-Cl) = N[C@@H](Cc1ccc(Cl)cc1)C(=O)O; Phe(4-NH2) = Nc1ccc(C[C@H](N)C(=O)O)cc1

How the values were obtained:
[1] = tested on: patients with progressive, SSTR-positive NETs; assay: Blood-based bone marrow dosimetry (part A); assay type: in vivo, human; conditions: cycles 1–3, 11 evaluated patients, median
Protocol: (§1) To generate pharmacokinetic data, blood samples (2 mL) were taken at the stop of infusion (0 min) and 5, 30, and 60 min, 4 h, and 1, 2, 3, and 6 days after the end of each [^177Lu]Lu-satoreotide tetraxetan administration. Urine samples were collected over three intervals within 48 h (0–6 h, 6–24 h, and 24–48 h in part A; 0–4 h, 4–24 h, and 24–48 h in part B) following the first treatment cycle of [^177Lu]Lu-satoreotide tetraxetan. Total activity concentrations in whole blood and urine were determined locally, using a gamma counter calibrated for lutetium-177. In two selected study centres, additional blood samples (2 mL) were collected at 1 min, 4 h, and 1, 2, 3, and 6 days after each [^177Lu]Lu-satoreotide tetraxetan administration to evaluate potential radioactive metabolites in plasma.
Patient-specific dosimetry calculations were performed after each treatment cycle in both parts A and B, using the absorbed dose calculation features of the NUKDOS software for image-based dosimetry calculations. The NUKDOS software was chosen as it allowed for an integral approach to organ dosimetry (including image quantification, time-activity curve-fitting and dosimetry calculation). For the bone marrow, both image-based and blood-based calculations were performed in part A [28, 29]. In part B, only image-based bone marrow dosimetry was performed. […]

[2] = Urinary excretion of radioactivity within 48 h (gamma counter); assay type: in vivo, human; conditions: first treatment cycle; for dose excreted: human, urine, iv, total radioactivity, read-out: Cumulative urinary excretion within 48 h
Protocol: as §1

[3] = tested on: patients with progressive, SSTR-positive NETs; assay: Time-activity curves of whole body and organs (planar whole-body imaging, SPECT/CT); assay type: in vivo, human; conditions: first treatment cycle, parts A and B; median
Protocol: In both parts A and B of the study, patients underwent planar whole-body imaging at 4 h and 1, 2, 3, and 6 days after each [^177Lu]Lu-satoreotide tetraxetan treatment cycle. Patients in part A also underwent single-photon emission computed tomography/computed tomography (SPECT/CT) at 24 h after each [^177Lu]Lu-satoreotide tetraxetan cycle. Those in part B underwent SPECT/CT, immediately before or after planar scintigraphy, at 4 h, and 1, 2, 3, and 6 days after each [^177Lu]Lu-satoreotide tetraxetan administration. Full details of the image acquisition methodology are provided in the Supplementary Information. Reconstruction parameters were set up to produce isotropic voxels of < 5 mm; voxels were continuous throughout the field of view. Anatomic coverage of the acquisition was determined according to the patients’ tumour locations on the planar whole-body scan acquisition with liver, both kidneys and spleen in the same bed position. […] VOIs for the same organs were drawn for all SPECT/CT images acquired in part B. All ROIs/VOIs were then used for activity quantification. […] Full details of the tumour delineation and activity quantification methodology are provided in the Supplementary Information.

[4] = tested on: patients with progressive, SSTR-positive NETs; assay: Model-based organ dosimetry, OLINDA/EXM version 1.0 (part B, first cycle); assay type: in vivo, human; conditions: OLINDA/EXM 1.0, part B, median
Protocol: Patient-specific dosimetry calculations were performed after each treatment cycle in both parts A and B, using the absorbed dose calculation features of the NUKDOS software for image-based dosimetry calculations. The NUKDOS software was chosen as it allowed for an integral approach to organ dosimetry (including image quantification, time-activity curve-fitting and dosimetry calculation). For the bone marrow, both image-based and blood-based calculations were performed in part A [28, 29]. In part B, only image-based bone marrow dosimetry was performed. Organ Level INternal Dose Assessment/EXponential Modelling (OLINDA/EXM) version 1.0 software, the most widely used version at the time of the study, was used to perform model-based dosimetry calculations, which were only performed after the first [^177Lu]Lu-satoreotide tetraxetan cycle for patients in part B. To generate organ-specific absorbed doses, TIACs were used as input data. Full details on OLINDA/EXM software settings and organ-specific TIAC calculation methods are provided in the Supplementary Information.
Patient-specific dosimetry calculations were performed according to European Association of Nuclear Medicine Dosimetry Guidance after each treatment cycle in both parts A and B, using the absorbed dose calculation features of the NUKDOS software (i.e., integration of the time-activity curves, calculation of the absorbed dose). Model-based dosimetry calculations were only performed after the first [^177Lu]Lu-satoreotide tetraxetan cycle and for patients in part B. To generate organ-specific absorbed doses, TIACs were used as input data in the Organ Level INternal Dose Assessment/EXponential Modelling (OLINDA/EXM) software version 1.0, which was granted Food and Drug Administration 510(k) clearance in June 2004. The following settings were applied: ^177Lu isotope, no bladder voiding model, adult male or female phantom. As the OLINDA/EXM software makes no distinction between the right and left kidneys, their TIACs were summed. In case biokinetic data were available for one kidney only, the kidney TIAC value was doubled. For the bone marrow, the patient-specific mass of the analysed vertebrae was used for upscaling image-based TIAC values according to the OLINDA/EXM phantom gender-specific masses (mBone marrow=1,120 g for males and 1,300 g for females):
The kidney, spleen, liver, and bone marrow TIACs were subtracted from the patient’s whole-body TIAC to obtain the TIAC of the remainder of the body.

[5] = Blood pharmacokinetics (total activity in whole blood, gamma counter); assay type: in vivo, human; conditions: first treatment cycle
Protocol: as §1

[6] = tested on: patients with progressive, SSTR-positive NETs; conditions: cited from earlier work
Source text: Here, we fully explore the biodistribution and dosimetry of [^177Lu]Lu-satoreotide tetraxetan in a dosage-finding, phase I/II study (NCT02592707; registered October 30, 2015) of 40 patients with progressive, SSTR-positive NETs treated with [^177Lu]Lu-satoreotide tetraxetan. A plain language summary of this publication can be found in the Supplementary Information. […] Acute haematological toxicity may be a dose-limiting factor for [^177Lu]Lu-satoreotide tetraxetan, and for ^177Lu-labelled somatostatin analogues in general. There is limited correlation between absorbed radiation doses to the bone marrow and development of haematologic toxicity. Therefore, it is important to carefully monitor hematological parameters during ...

In the case of `C[C@@H](O)[C@@H]1NC(=O)[C@H](CCCCN)NC(=O)[C@@H](Cc2ccc(NC(N)=O)cc2)NC(=O)[C@H](Cc2ccc(NC(=O)[C@@H]3CC(=O)NC(=O)N3)cc2)NC(=O)[C@H](NC(=O)[C@H](Cc2ccc(Cl)cc2)NC(=O)CN2CCN(CC(=O)O)CCN(CC(=O)O)CCN(CC(=O)O)CC2)CSSC[C@@H](C(=O)N[C@H](Cc2ccc(O)cc2)C(N)=O)NC1=O` [[^177Lu]Lu-satoreotide tetraxetan, metal not drawn] ({DOTA}-[Phe(4-Cl)][dC][Phe(4-NH2)](Dihydroorotyl(S))[dPhe(4-NHCONH2)]KTC[dY]-NH2; disulfide 2-7 (inferred); C-terminus assumed), the “Cumulative absorbed dose, bone marrow, blood-based method” value [1] is reported as 0.3 Gy, the “Cumulative urinary excretion within 48 h” value ([2]; patients treated with 4.5 GBq) is reported as 57–66% and the “Radioactivity excreted via urine within 48 hours” value ([2]; patients treated with 4.5 GBq, range of medians across groups) is reported as 2.6–3.0 GBq. For the same compound, the “Radioactivity excreted via urine within 48 hours” value ([2]; patients treated with 6 GBq, median) was 3.4 GBq, the dose excreted ([2]; patients treated with 4.5 GBq) was 57 to 66% and the dose excreted ([2]; patients treated with 6 GBq) was about 57%. The “Whole body uptake at 6 days” value [3] was 11.5 % administered activity, the “Calculated absorbed dose for 3 cycles of 4.5 GBq each, Red marrow” value ([4]; N = 18) was 1.47 Gy and the “Calculated absorbed dose for 3 cycles of 4.5 GBq each, Spleen” value ([4]; N = 18) was 8.78 Gy. The “Calculated absorbed dose for 3 cycles of 4.5 GBq each, Adrenals” value ([4]; N = 24) was 1.03 Gy, the “Calculated absorbed dose for 3 cycles of 4.5 GBq each, Brain” value ([4]; N = 24) was 0.96 Gy and the “Calculated absorbed dose for 3 cycles of 4.5 GBq each, Breasts” value ([4]; N = 24) was 0.95 Gy. The “Calculated absorbed dose for 3 cycles of 4.5 GBq each, Gallbladder wall” value ([4]; N = 24) was 1.02 Gy, the “Calculated absorbed dose for 3 cycles of 4.5 GBq each, Heart wall” value ([4]; N = 24) was 0.99 Gy and the “Calculated absorbed dose for 3 cycles of 4.5 GBq each, Kidneys” value ([4]; N = 24) was 14.18 Gy. For the same compound, the “Calculated absorbed dose for 3 cycles of 4.5 GBq each, Lungs” value ([4]; N = 24) was 0.98 Gy, the “Calculated absorbed dose for 3 cycles of 4.5 GBq each, Muscle” value ([4]; N = 24) was 0.97 Gy and the “Calculated absorbed dose for 3 cycles of 4.5 GBq each, Osteogenic cells” value ([4]; N = 24) was 3.96 Gy. The “Calculated absorbed dose for 3 cycles of 4.5 GBq each, Ovaries” value ([4]; N = 24) was 1.00 Gy, the “Calculated absorbed dose for 3 cycles of 4.5 GBq each, Pancreas” value ([4]; N = 24) was 1.05 Gy and the “Calculated absorbed dose for 3 cycles of 4.5 GBq each, Skin” value ([4]; N = 24) was 0.93 Gy. For the same compound, the “Calculated absorbed dose for 3 cycles of 4.5 GBq each, Small intestine” value ([4]; N = 24) was 1.00 Gy, the “Calculated absorbed dose for 3 cycles of 4.5 GBq each, Stomach wall” value ([4]; N = 24) was 1.01 Gy and the “Calculated absorbed dose for 3 cycles of 4.5 GBq each, Thymus” value ([4]; N = 24) was 0.98 Gy. For the same compound, the “Calculated absorbed dose for 3 cycles of 4.5 GBq each, Thyroid” value ([4]; N = 24) was 0.96 Gy, the “Calculated absorbed dose for 3 cycles of 4.5 GBq each, Total body” value ([4]; N = 24) was 1.08 Gy and the “Calculated absorbed dose for 3 cycles of 4.5 GBq each, Liver” value ([4]; N = 24, may be an underestimation) was 1.07 Gy. For the same compound, the “Calculated absorbed dose for 3 cycles of 4.5 GBq each, Uterus” value ([4]; female patients N = 11) was 1.13 Gy, the “Calculated absorbed dose for 3 cycles of 4.5 GBq each, Testes” value ([4]; male patients N = 13) was 0.72 Gy and the “Calculated absorbed dose for 3 cycles of 4.5 GBq each, LLI wall” value ([4]; lower large intestine, N = 24) was 1.00 Gy. The “Calculated absorbed dose for 3 cycles of 4.5 GBq each, ULI wall” value ([4]; upper large intestine, N = 24) was 1.01 Gy, the “Calculated absorbed dose for 3 cycles of 4.5 GBq each, UB wall” value ([4]; urinary bladder, N = 24) was 0.99 Gy and the “Extrapolated area under the concentration-time curve (AUC0–infinity), mean” value [5] was 742.0 ± 303.0 MBq.h/L. The “Terminal blood half-life, mean ± SD” value ([5]; gamma counter) was 110.0 ± 50.1 h, the “Terminal blood half-life, median” value ([5]; gamma counter) was 127 h and the “Blood uptake at 1–5 minutes (peak)” value ([5]; median) was 3.03 % administered activity/L. The “Grade 3/4 kidney toxicity” value ([6]; 40 patients) was “no reported grade 3/4 kidney toxicity”, the “Grade 3/4 treatment-related lymphopenia” value ([6]; 40 patients) was 7.5 % of patients and the “Disease control rate at 12 months” value [6] was 94.7%.
